# Data as given in patent CN101223191A (AGENSYS INC, dated 2008).
# Values joined by “and” are separate entries in the source; they are usually repeats but may differ in a detail not shown here. Equal values may be shown once.
# T1: human PSCA (prostate stem cell antigen, PSCA v.1) (human, UniProt O43653 12-83)
# T1 construct: The whole entry is named; also called PSCA变体1; 细胞表面PSCA
# T1 sequence: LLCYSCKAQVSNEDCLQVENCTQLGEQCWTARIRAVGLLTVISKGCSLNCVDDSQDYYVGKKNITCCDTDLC
# Tests used:
# [1] = target: T1, human PSCA (prostate stem cell antigen, …); assay: FACS-based affinity on cell-surface PSCA (LAPC9AI cells)
# [2] = target: T1, human PSCA (prostate stem cell antigen, …); assay: FACS saturation binding on LAPC9AI cells, one-site binding (hyperbola) fit, Graphpad Prism
binder,measurement,setting,value
"anti-PSCA MAb H1-1.10 (antibody, V domains shown, Fully human IgG1 (gamma 1) / kappa antibody from XenoMouse immunised with B300.19/PSCA cells; tested as hybridoma supernatant or purified antibody; also called PSCA H1-1.10; H1/1.10.1.1) VH: QLQESGPGLVKPSQTLSLTCTVSGGSISSGGYYWSWIRQHPGKGLEWIGYIYYSGSTYYNPSLKSRVTISVDTSKNQFSLKLSSGTAADTAVYYCARDHITMVRGVPKGMDVWGQGTTVTVSS VL: QLTQSPSSLSASVGDRVTITCRASQSISRHLNWYQQKPGKAPKFLIYVASSLQSGVPSRFSGSGSGTDFTLTISSLQPEDFATYFCQQSYSIPRTFGQGTKVEIKR",Kd,[1],0.6 nM
same,Kd,[2],0.593 nM and 0.636 nM
